*1 amine or outer side, *2 acyl side, *3 side chain or, on linkers, in order; H or OH if unused. The star is where a group is joined. C18 diacid = O=C(O)CCCCCCCCCCCCCCCCC(=O)*; γGlu = O=C(O)[C@H](CCC(=O)[*:2])N[*:1]
T1: human amylin-3(a) receptor (human, UniProt P30988 25-474; O60896 24-148)
T1 sequence (looked up) 1: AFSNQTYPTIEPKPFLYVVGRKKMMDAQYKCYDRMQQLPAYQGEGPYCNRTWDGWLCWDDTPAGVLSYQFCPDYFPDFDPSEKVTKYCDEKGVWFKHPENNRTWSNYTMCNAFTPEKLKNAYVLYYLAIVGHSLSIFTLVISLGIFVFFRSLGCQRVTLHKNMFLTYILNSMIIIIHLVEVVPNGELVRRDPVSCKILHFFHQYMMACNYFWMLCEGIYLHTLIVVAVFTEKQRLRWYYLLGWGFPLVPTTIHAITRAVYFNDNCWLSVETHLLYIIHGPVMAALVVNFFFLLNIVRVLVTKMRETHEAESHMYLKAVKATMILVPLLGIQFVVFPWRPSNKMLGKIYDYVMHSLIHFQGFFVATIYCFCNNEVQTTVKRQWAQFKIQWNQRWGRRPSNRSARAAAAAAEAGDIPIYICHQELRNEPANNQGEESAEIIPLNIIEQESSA
T1 sequence (looked up) 2: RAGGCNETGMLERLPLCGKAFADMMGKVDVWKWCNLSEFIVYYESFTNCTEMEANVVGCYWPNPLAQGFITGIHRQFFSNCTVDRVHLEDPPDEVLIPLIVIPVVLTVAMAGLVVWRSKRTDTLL

T2: human calcitonin receptor (a) (human, UniProt P30988 25-474)
T2 sequence (looked up): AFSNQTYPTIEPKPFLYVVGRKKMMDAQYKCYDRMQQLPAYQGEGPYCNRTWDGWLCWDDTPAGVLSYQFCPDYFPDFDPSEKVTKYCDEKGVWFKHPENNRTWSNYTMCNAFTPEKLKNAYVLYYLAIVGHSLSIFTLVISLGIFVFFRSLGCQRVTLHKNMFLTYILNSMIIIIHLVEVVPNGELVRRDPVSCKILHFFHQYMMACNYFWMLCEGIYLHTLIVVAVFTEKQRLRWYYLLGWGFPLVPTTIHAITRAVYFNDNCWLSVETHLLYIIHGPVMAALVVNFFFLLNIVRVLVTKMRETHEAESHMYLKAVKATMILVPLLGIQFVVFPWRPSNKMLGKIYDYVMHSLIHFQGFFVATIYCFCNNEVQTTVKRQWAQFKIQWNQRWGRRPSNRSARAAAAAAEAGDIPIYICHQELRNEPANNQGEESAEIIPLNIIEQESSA


How the values were obtained:
[1] = biological target: T1, human amylin-3(a) receptor; assay: cell-based or functional assay
[2] = biological target: T2, human calcitonin receptor (a); assay: cell-based or functional assay

Binder	hAmyR3 potency, EC50 (pM); CRE-luciferase reporter in BHK cells [1] [pM]	hCalcR potency, EC50 (pM); CRE-luciferase reporter in BHK cells [2] [pM]
{C18 diacid-γGlu}-ASQLSTAQTARLAEFLHHSSDNFGPILPPTDVGSNTP-NH2 (SMILES CC[C@H](C)[C@H](NC(=O)[C@@H]1CCCN1C(=O)CNC(=O)[C@H](Cc1ccccc1)NC(=O)[C@H](CC(N)=O)NC(=O)[C@H](CC(=O)O)NC(=O)[C@H](CO)NC(=O)[C@H](CO)NC(=O)[C@H](Cc1c[nH]cn1)NC(=O)[C@H](Cc1c[nH]cn1)NC(=O)[C@H](CC(C)C)NC(=O)[C@H](Cc1ccccc1)NC(=O)[C@H](CCC(=O)O)NC(=O)[C@H](C)NC(=O)[C@H](CC(C)C)NC(=O)[C@H](CCCNC(=N)N)NC(=O)[C@H](C)NC(=O)[C@@H](NC(=O)[C@H](CCC(N)=O)NC(=O)[C@H](C)NC(=O)[C@@H](NC(=O)[C@H](CO)NC(=O)[C@H](CC(C)C)NC(=O)[C@H](CCC(N)=O)NC(=O)[C@H](CO)NC(=O)[C@H](C)NC(=O)CC[C@H](NC(=O)CCCCCCCCCCCCCCCCC(=O)O)C(=O)O)[C@@H](C)O)[C@@H](C)O)C(=O)N[C@@H](CC(C)C)C(=O)N1CCC[C@H]1C(=O)N1CCC[C@H]1C(=O)N[C@H](C(=O)N[C@@H](CC(=O)O)C(=O)N[C@H](C(=O)NCC(=O)N[C@@H](CO)C(=O)N[C@@H](CC(N)=O)C(=O)N[C@H](C(=O)N1CCC[C@H]1C(N)=O)[C@@H](C)O)C(C)C)[C@@H](C)O)	1.22	1.86
{C18 diacid-γGlu}-ASHLSTAQTARLAEFLHHSSDPFGAIPSSTDVGPDTP-NH2 (SMILES CC[C@H](C)[C@H](NC(=O)[C@H](C)NC(=O)CNC(=O)[C@H](Cc1ccccc1)NC(=O)[C@@H]1CCCN1C(=O)[C@H](CC(=O)O)NC(=O)[C@H](CO)NC(=O)[C@H](CO)NC(=O)[C@H](Cc1c[nH]cn1)NC(=O)[C@H](Cc1c[nH]cn1)NC(=O)[C@H](CC(C)C)NC(=O)[C@H](Cc1ccccc1)NC(=O)[C@H](CCC(=O)O)NC(=O)[C@H](C)NC(=O)[C@H](CC(C)C)NC(=O)[C@H](CCCNC(=N)N)NC(=O)[C@H](C)NC(=O)[C@@H](NC(=O)[C@H](CCC(N)=O)NC(=O)[C@H](C)NC(=O)[C@@H](NC(=O)[C@H](CO)NC(=O)[C@H](CC(C)C)NC(=O)[C@H](Cc1c[nH]cn1)NC(=O)[C@H](CO)NC(=O)[C@H](C)NC(=O)CC[C@H](NC(=O)CCCCCCCCCCCCCCCCC(=O)O)C(=O)O)[C@@H](C)O)[C@@H](C)O)C(=O)N1CCC[C@H]1C(=O)N[C@@H](CO)C(=O)N[C@@H](CO)C(=O)N[C@H](C(=O)N[C@@H](CC(=O)O)C(=O)N[C@H](C(=O)NCC(=O)N1CCC[C@H]1C(=O)N[C@@H](CC(=O)O)C(=O)N[C@H](C(=O)N1CCC[C@H]1C(N)=O)[C@@H](C)O)C(C)C)[C@@H](C)O)	1.27	1.5
{C18 diacid-γGlu}-ASALSTAQTARLAEFLHHSSDNFGPILPPTDVGSNTP-NH2 (SMILES CC[C@H](C)[C@H](NC(=O)[C@@H]1CCCN1C(=O)CNC(=O)[C@H](Cc1ccccc1)NC(=O)[C@H](CC(N)=O)NC(=O)[C@H](CC(=O)O)NC(=O)[C@H](CO)NC(=O)[C@H](CO)NC(=O)[C@H](Cc1c[nH]cn1)NC(=O)[C@H](Cc1c[nH]cn1)NC(=O)[C@H](CC(C)C)NC(=O)[C@H](Cc1ccccc1)NC(=O)[C@H](CCC(=O)O)NC(=O)[C@H](C)NC(=O)[C@H](CC(C)C)NC(=O)[C@H](CCCNC(=N)N)NC(=O)[C@H](C)NC(=O)[C@@H](NC(=O)[C@H](CCC(N)=O)NC(=O)[C@H](C)NC(=O)[C@@H](NC(=O)[C@H](CO)NC(=O)[C@H](CC(C)C)NC(=O)[C@H](C)NC(=O)[C@H](CO)NC(=O)[C@H](C)NC(=O)CC[C@H](NC(=O)CCCCCCCCCCCCCCCCC(=O)O)C(=O)O)[C@@H](C)O)[C@@H](C)O)C(=O)N[C@@H](CC(C)C)C(=O)N1CCC[C@H]1C(=O)N1CCC[C@H]1C(=O)N[C@H](C(=O)N[C@@H](CC(=O)O)C(=O)N[C@H](C(=O)NCC(=O)N[C@@H](CO)C(=O)N[C@@H](CC(N)=O)C(=O)N[C@H](C(=O)N1CCC[C@H]1C(N)=O)[C@@H](C)O)C(C)C)[C@@H](C)O)	1.62	1.58
{C18 diacid-γGlu}-ASHLSTAQTQRLAEFLHHSSDNFGPILPPTDVGSNTP-NH2 (SMILES CC[C@H](C)[C@H](NC(=O)[C@@H]1CCCN1C(=O)CNC(=O)[C@H](Cc1ccccc1)NC(=O)[C@H](CC(N)=O)NC(=O)[C@H](CC(=O)O)NC(=O)[C@H](CO)NC(=O)[C@H](CO)NC(=O)[C@H](Cc1c[nH]cn1)NC(=O)[C@H](Cc1c[nH]cn1)NC(=O)[C@H](CC(C)C)NC(=O)[C@H](Cc1ccccc1)NC(=O)[C@H](CCC(=O)O)NC(=O)[C@H](C)NC(=O)[C@H](CC(C)C)NC(=O)[C@H](CCCNC(=N)N)NC(=O)[C@H](CCC(N)=O)NC(=O)[C@@H](NC(=O)[C@H](CCC(N)=O)NC(=O)[C@H](C)NC(=O)[C@@H](NC(=O)[C@H](CO)NC(=O)[C@H](CC(C)C)NC(=O)[C@H](Cc1c[nH]cn1)NC(=O)[C@H](CO)NC(=O)[C@H](C)NC(=O)CC[C@H](NC(=O)CCCCCCCCCCCCCCCCC(=O)O)C(=O)O)[C@@H](C)O)[C@@H](C)O)C(=O)N[C@@H](CC(C)C)C(=O)N1CCC[C@H]1C(=O)N1CCC[C@H]1C(=O)N[C@H](C(=O)N[C@@H](CC(=O)O)C(=O)N[C@H](C(=O)NCC(=O)N[C@@H](CO)C(=O)N[C@@H](CC(N)=O)C(=O)N[C@H](C(=O)N1CCC[C@H]1C(N)=O)[C@@H](C)O)C(C)C)[C@@H](C)O)	1.64	1.89
{C18 diacid-γGlu}-ASQLSTAQTQRLAEFLHHSSDPFGAIPSSTDVGPDTP-NH2 (SMILES CC[C@H](C)[C@H](NC(=O)[C@H](C)NC(=O)CNC(=O)[C@H](Cc1ccccc1)NC(=O)[C@@H]1CCCN1C(=O)[C@H](CC(=O)O)NC(=O)[C@H](CO)NC(=O)[C@H](CO)NC(=O)[C@H](Cc1c[nH]cn1)NC(=O)[C@H](Cc1c[nH]cn1)NC(=O)[C@H](CC(C)C)NC(=O)[C@H](Cc1ccccc1)NC(=O)[C@H](CCC(=O)O)NC(=O)[C@H](C)NC(=O)[C@H](CC(C)C)NC(=O)[C@H](CCCNC(=N)N)NC(=O)[C@H](CCC(N)=O)NC(=O)[C@@H](NC(=O)[C@H](CCC(N)=O)NC(=O)[C@H](C)NC(=O)[C@@H](NC(=O)[C@H](CO)NC(=O)[C@H](CC(C)C)NC(=O)[C@H](CCC(N)=O)NC(=O)[C@H](CO)NC(=O)[C@H](C)NC(=O)CC[C@H](NC(=O)CCCCCCCCCCCCCCCCC(=O)O)C(=O)O)[C@@H](C)O)[C@@H](C)O)C(=O)N1CCC[C@H]1C(=O)N[C@@H](CO)C(=O)N[C@@H](CO)C(=O)N[C@H](C(=O)N[C@@H](CC(=O)O)C(=O)N[C@H](C(=O)NCC(=O)N1CCC[C@H]1C(=O)N[C@@H](CC(=O)O)C(=O)N[C@H](C(=O)N1CCC[C@H]1C(N)=O)[C@@H](C)O)C(C)C)[C@@H](C)O)	1.49	1.56
